Measured values published in patent US8715697B2, “Genes associated with Leishmania parasite virulence” (priority 2001, dated 2014).

Experiments:
mononuclear cells = experiment: In vitro proliferation of mononuclear cells from individuals of a ZCL region, tritiated thymidine incorporation; assay type: cell-based, human; conditions: 5 μg/ml LmPDI, 5 days of culture, immune individuals (positive SLA test); FIG. 8
Procedure: The lymphomonocytary cells were recovered, washed by 3 successive centrifuge runs with RPMI-PS/Glu medium (30 ml then twice 10 ml) then counted and incubated at a concentration of 10^6 cells/ml of medium in the presence or absence of a concentration of 5 μg/ml of LmPDI. After 5 days of culture, lymphocyte stimulation was estimated by incorporating tritiated thymidine. The result is expressed in CPM.
L. major LmPDI, because of its high expression during the infectious stage of the parasite, could be a target for a cellular immune response. In order to verify the pertinence of this hypothesis, the capacity of LmPDI to induce a cellular immune response was evaluated by means of experiments on the proliferation of mononuclear cells obtained from individuals having active lesions or ZCL antecedents.
This study was carried out in 37 individuals living at El Guettar (southern Tunisia) for whom the results of the cellular proliferation test against total antigens from the parasite (SLA, a test indicating prior contact with the parasite) was available. These individuals were divided up as follows:
Mononuclear cells comprising lymphocytes and monocytes were separated from peripheral blood by centrifuging on a Ficoll/Hypaque gradient (Pharmacia, Uppsala, Sweden).

mononuclear cells (PBMC) = experiment: Cytokines (IFN-β, IL-4) in PBMC culture supernatants, ELISA; assay type: cell-based, human; conditions: 5 μg/ml LmPDI, 48 hours, small sample of individuals
Procedure: Cytokines (IFN-β, IL-4) in PBMC culture supernatants were induced by incubating mononuclear cells for 48 hours with the same concentration of LmPDI and assaying by means of an ELISA test using human anti-IL-4 and anti-IFN-β monoclonal antibodies (Pharmingen, San Diego, Calif.).

scrambled RNase A = experiment: Reactivation of scrambled RNase A in the presence of recombinant LmPDI protein (PDI activity); assay type: biochemical; conditions: 1.4 μM recombinant LmPDI, 30 minutes at 25° C., compared with bovine PDI; FIG. 4
Procedure: Scrambled RNase A (8 μM) was incubated in a buffer containing 4.5 mM (cCMP), 1 mM glutathione GSH, 0.2 mM glutathione disulfide GSSH, 2 mM EDTA and 100 mM Tris-HCl pH 8 in the presence of bovine serum albumin (BSA) (1.4 μM) as a negative control, bovine protein disulfide-isomerase (1.4 μM) as the positive control, or recombinant LmPDI (1.4 μM) for 30 minutes at 25° C. RNase A reactivation was determined by measuring the RNase A activity at 296 nm every 5 minutes for 30 minutes (Lyles and Gilbert, 1991).
20 mg of purified ribonuclease (RNase A) was scrambled at ambient temperature for 18 hours in a buffer containing 0.15 M of DTT, 6 M of guanidine-HCl and 0.1 M of Tris-HCl at a pH of 8.6 before being purified on a Sephadex G-25 column equilibrated in 0.01 M HCl. The concentration of scrambled RNase A fractions was determined using an extinction coefficient of 9200 M^−1 cm^−1 at 275 nm. Thu fractions were stored at −80° C. for two weeks.
Scrambled RNase A (8 μM) was incubated in a buffer containing 4.5 mM cCMP, 1 mM glutathione GSH, 0.2 mM glutathione disulfide GSSH, 2 mM EDTA and 100 mM of Tris-HCl pH 8 in the presence of bovine serum albumin (BSA) (1.4 μM) as a negative control, bovine protein disulfide-isomerase (1.4 μM) as a positive control, or recombinant LmPDI (1.4 μM) for 30 minutes at 25° C. […]

B1: LmPDI: recombinant protein disulfide isomerase of Leishmania major, SEQ ID No: 3, produced in E. coli; vaccine candidate (protein)
chain: MAEVQVATKDNFDKVVIGDLTLVKFYAPWCGHCKTLAPEFVKAADMLAGIATLAEVDCTKEESLAEKYEIKGFPTLYIFRNGEKVKIYDGPRTAAGIASYMKAHVGPSMKAISTAEELEELKKETFPVCVVKTASTDSEMASMITKVADSLRSQMNFVLVTDAAISPNDAMESVTVYRKNAEREAYTGATPMTAESVKSFLTSAVLDYFGELGQESFQKYMEANKDKPLGWVFIDKNTDSALKGSLVAVAEKYRSQVLLTYIDGDQYRPVSRQLGIPEDAKFPAFVVDFERRHHVMGTDTPVTSESVAAFVEKYVKGETKQTVMSDAIPAKETVNGLTTVVGQTFAKYTDGTQNVMLLFYAPWCGHCKKLHPVYDKVAKSFESENVIIAKMDATTNDFDREKFEVSGFPTIYFIPAGKPPIVYEGGRTADEIQVFVKSHLTASAAPSGGPSGNSEEEDLLEHHHHHH
modifications: His6 tag
notes: vaccine candidate
proliferation of mononuclear cells (mononuclear cells): significant proliferation
IFN-β in the supernatant from stimulated cells (mononuclear cells (PBMC)): significant amounts
IL-4 in the supernatant from stimulated cells (mononuclear cells (PBMC)): absence
restoration of RNase A activity (scrambled RNase A): capable of restoring RNase A activity
